Legend:
[1] = target: Nup82-Flag-TEV-ProtA (S. cerevisiae, UniProt P40368 1-713); test: quantitative targeted mass spectrometry
[2] = target: the molecule itself; test: AUC + SEC
[3] = target: the molecule itself; test: SEC-MALS
[4] = target: Nup82 (of the Nup82–Nup159tail–Flag-Nsp1C complex) (S. cerevisiae, UniProt P40368 1-713); test: SEC-MALS
Sequence of Nup82 (of the Nup82–Nup159tail–Flag-Nsp1C complex) (P40368 whole entry, one chain of several): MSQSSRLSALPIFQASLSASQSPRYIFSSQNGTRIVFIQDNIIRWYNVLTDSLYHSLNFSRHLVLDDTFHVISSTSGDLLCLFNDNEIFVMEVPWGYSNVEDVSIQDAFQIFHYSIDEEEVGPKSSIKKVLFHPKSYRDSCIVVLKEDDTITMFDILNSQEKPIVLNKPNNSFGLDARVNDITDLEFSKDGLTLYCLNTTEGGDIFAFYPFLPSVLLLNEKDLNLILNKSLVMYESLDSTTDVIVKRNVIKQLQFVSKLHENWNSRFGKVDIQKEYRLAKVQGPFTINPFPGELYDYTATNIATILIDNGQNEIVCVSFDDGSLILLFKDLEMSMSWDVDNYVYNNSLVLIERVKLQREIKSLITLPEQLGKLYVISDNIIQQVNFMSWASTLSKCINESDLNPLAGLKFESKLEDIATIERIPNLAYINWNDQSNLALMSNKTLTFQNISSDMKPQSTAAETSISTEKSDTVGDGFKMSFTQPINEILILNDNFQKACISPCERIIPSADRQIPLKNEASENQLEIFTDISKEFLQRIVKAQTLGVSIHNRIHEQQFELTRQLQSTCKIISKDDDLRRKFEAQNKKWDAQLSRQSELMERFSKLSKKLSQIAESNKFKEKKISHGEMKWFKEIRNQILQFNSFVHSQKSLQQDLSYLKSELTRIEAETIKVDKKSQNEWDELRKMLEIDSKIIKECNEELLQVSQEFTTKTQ

Sequence of Nup82-Flag-TEV-ProtA (P40368 whole entry): as the sequence (P40368 whole entry, one chain of several) above

B1: Nsp1C (domain or fragment)
chain: not shown
With B1 the “stoichiometry N” value [1] was 1.

B2: Nup159C (domain or fragment, S. cerevisiae, UniProt P40477 1082-1460, looked up)
chain: EDINTDELPHGGEAFKAREVSASADFDVQTSLEDNYAESGIQTDLSESSKENEVQTDAIPVKHNSTQTVKKEAVDNGLQTEPVETCNFSVQTFEGDENYLAEQCKPKQLKEYYTSAKVSNIPFVSQNSTLRLIESTFQTVEAEFTVLMENIRNMDTFFTDQSSIPLVKRTVRSINNLYTWRIPEAEILLNIQNNIKCEQMQITNANIQDLKEKVTDYVRKDIAQITEDVANAKEEYLFLMHFDDASSGYVKDLSTHQFRMQKTLRQKLFDVSAKINHTEELLNILKLFTVKNKRLDDNPLVAKLAKESLARDGLLKEIKLLREQVSRLQLEEKGKKASSFDASSSITKDMKGFKVVEVGLAMNTKKQIGDFFKNLNMAK
For B2, the “stoichiometry N” value [2] was 2 and the “stoichiometry N” value [1] was 1.

B3: Nup159-QT4–5-Linker-H1 (domain or fragment, S. cerevisiae, UniProt P40477 1150-1244, looked up)
chain: VKKEAVDNGLQTEPVETCNFSVQTFEGDENYLAEQCKPKQLKEYYTSAKVSNIPFVSQNSTLRLIESTFQTVEAEFTVLMENIRNMDTFFTDQSS
In the case of B3, the “stoichiometry N” value [3] is reported as 4.

B4: Flag-Nsp1C (domain or fragment)
chain: not shown
With B4 the “stoichiometry N” value [4] was 1.
